# Measured values from publication PMC2581521 (2008).
# T1: Chordin (Xenopus laevis, UniProt Q91713)
# T1 chain: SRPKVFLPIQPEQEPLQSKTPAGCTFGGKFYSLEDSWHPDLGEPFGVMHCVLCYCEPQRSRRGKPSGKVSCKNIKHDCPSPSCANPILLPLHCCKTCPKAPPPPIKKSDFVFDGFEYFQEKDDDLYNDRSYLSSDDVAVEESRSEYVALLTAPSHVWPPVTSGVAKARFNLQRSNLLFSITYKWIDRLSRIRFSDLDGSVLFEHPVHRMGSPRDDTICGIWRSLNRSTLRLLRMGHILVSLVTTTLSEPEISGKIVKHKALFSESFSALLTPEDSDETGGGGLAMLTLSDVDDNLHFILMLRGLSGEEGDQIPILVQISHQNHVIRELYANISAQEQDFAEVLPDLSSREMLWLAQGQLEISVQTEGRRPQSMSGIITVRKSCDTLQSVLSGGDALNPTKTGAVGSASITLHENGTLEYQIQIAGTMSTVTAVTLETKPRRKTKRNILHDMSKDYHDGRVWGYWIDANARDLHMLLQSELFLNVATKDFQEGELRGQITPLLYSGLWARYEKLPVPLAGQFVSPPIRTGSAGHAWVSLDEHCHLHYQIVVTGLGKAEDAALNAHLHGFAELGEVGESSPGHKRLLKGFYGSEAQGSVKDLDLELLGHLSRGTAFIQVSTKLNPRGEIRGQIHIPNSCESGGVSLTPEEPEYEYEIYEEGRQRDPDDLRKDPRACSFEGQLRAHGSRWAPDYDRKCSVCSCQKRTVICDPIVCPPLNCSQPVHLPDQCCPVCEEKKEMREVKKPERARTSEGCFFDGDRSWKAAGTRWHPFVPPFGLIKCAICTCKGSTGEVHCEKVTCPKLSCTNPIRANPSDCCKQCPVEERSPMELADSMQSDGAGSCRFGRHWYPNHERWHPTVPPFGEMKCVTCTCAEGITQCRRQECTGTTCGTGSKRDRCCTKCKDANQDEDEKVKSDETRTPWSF
# B1: Crossveinless-2 (protein)
# chain: not shown
# Molecular target: T1, Chordin
# Assay: SPR
binder,measurement,value
B1,Kd,1.37 nM
